# B1: Lactococcus lactis subsp. lactis (strain KF147) phosphoketolase, Uniprot A9QST6, SEQ ID NO: 3 (Lactococcus lactis subsp. lactis Il1403) (protein)
# chain: MTEYNSEAYLKKLDKWWRAATYLGAGMIFLKENPLFSVTGTPIKAENLKANPIGHWGTVSGQTFLYAHANRLINKYNQKMFYMGGPGHGGQAMVVPSYLDGSYTEAYPEITQDLEGMSRLFKRFSFPGGIGSHMTAQTPGSLHEGGELGYVLSHATGAILDQPEQIAFAVVGDGEAETGPLMTSWHSIKFINPKNDGAILPILDLNGFKISNPTLFARTSDVDIRKFFEGLGYSPRYIENDDIHDYMAYHKLAAEVFDKAIEDIHQIQKDAREDNRYQNGEIPAWPIVIARLPKGWGGPRYNDWSGPKFDGKGMPIEHSFRAHQVPLPLSSKNMGTLPEFVKWMTSYQPETLFNADGSLKEELRDFAPKGEMRMASNPVTNGGVDYSNLVLPDWQEFANPISENNRGKLLPDTNDNMDMNVLSKYFAEIVKLNPTRFRLFGPDETMSNRFWEMFKVTNRQWMQVIKNPNDEFISPEGRIIDSQLSEHQAEGWLEGYTLTGRTGVFASYESFLRVVDSMLTQHFKWIRQAADQKWRHDYPSLNVISTSTVFQQDHNGYTHQDPGMLTHLAEKKSDFIRQYLPADGNTLLAVFDRAFQDRSKINHIVASKQPRQQWFTKEEAEKLATDGIATIDWASTAKDGEAVDLVFASAGAEPTIETLAALHLVNEVFPQAKFRYVNVVELGRLQKKKGALNQERELSDEEFEKYFGPSGTPVIFGFHGYEDLIESIFYQRGHDGLIVHGYREDGDITTTYDMRVYSELDRFHQAIDAMQVLYVNRKVNQGLAKAFIDRMERTLVKHFEVTRNEGVDIPEFTEWVWSDLKK
# B2: Bifidobacterium pseudolongum subsp. globosum phosphoketolase, Uniprot Q6R2Q6, SEQ ID NO: 1 (Bifidobacterium pseudolongum subsp. globosum) (protein)
# chain: MTNPVIGTPWQKLDRPVSEEAIEGMDKYWRVTNYMSIGQIYLRSNPLMKEPFTRDDVKHRLVGHWGTTPGLNFLLAHINRLIADHQQNTVFIMGPGHGGPAGTSQSYVDGTYTEYYPNITKDEAGLQKFFRQFSYPGGIPSHFAPETPGSIHEGGELGYALSHAYGAVMNNPSLFVPCIIGDGEAETGPLATGWQSNKLVNPRTDGIVLPILHLNGYKIANPTILARISDEELHDFFRGMGYHPYEFVAGFDNEDHMSIHRRFAELFETIFDEICDIKAAAQTDDMTRPFYPMLIFRTPKGWTCPKFIDGKKTEGSWRAHQVPLASARDTEEHFEVLKGWLESYKPEELFNADGSIKDDVTAFMPKGDLRIGANPNANGGVIREDLKLPELDQYEVTGVKEYGHGWGQVEAPRSLGAYCRDIIKNNPDSFRIFGPDETASNRLNATYEVTDKQWDNGYLSSLVDEHMAVTGQVTEQLSEHQCEGFLEAYLLTGRHGIWSSYESFVHVIDSMLNQHAKWLEATVREIPWRKPISSVNLLVSSHVWRQDHNGFSHQDPGVTSVLINKTFNNDHVTNIYFATDANMLLAISEKCFKSTNKINAIFAGKQPAPTWITLDEARAELEAGAAEWKWASNAENNDEVQVVLAAAGDVPTQEIMAASDALNKMGIKFKVVNVVDLLKLQSRENNDEALTDEEFTDLFTADKPVLFAYHSYAQDVRGLIYDRPNHDNFNVVGYKEQGSTTTPFDMVRVNDMDRYALQAAALKMIDADKYADKIDELNAFRQKAFQFAVDNGYDIPEFTDWVYPDVKVDETQMLSATAATAGDNE
# B3: Clostridium acetobutylicum (strain ATCC 824) phosphoketolase, Uniprot Q97JE3, SEQ ID NO: 2 (Clostridium acetobutylicum ATCC 824) (protein)
# chain: MQSIIGKHKDEGKITPEYLKKIDAYWRAANFISVGQLYLLDNPLLREPLKPEHLKRKVVGHWGTIPGQNFIYAHLNRVIKKYDLDMIYVSGPGHGGQVMVSNSYLDGTYSEVYPNVSRDLNGLKKLCKQFSFPGGISSHMAPETPGSINEGGELGYSLAHSFGAVFDNPDLITACVVGDGEAETGPLATSWQANKFLNPVTDGAVLPILHLNGYKISNPTVLSRIPKDELEKFFEGNGWKPYFVEGEDPETMHKLMAETLDIVTEEILNIQKNARENNDCSRPKWPMIVLRTPKGWTGPKFVDGVPNEGSFRAHQVPLAVDRYHTENLDQLEEWLKSYKPEELFDENYRLIPELEELTPKGNKRMAANLHANGGLLLRELRTPDFRDYAVDVPTPGSTVKQDMIELGKYVRDVVKLNEDTRNFRIFGPDETMSNRLWAVFEGTKRQWLSEIKEPNDEFLSNDGRIVDSMLSEHLCEGWLEGYLLTGRHGFFASYEAFLRIVDSMITQHGKWLKVTSQLPWRKDIASLNLIATSNVWQQDHNGYTHQDPGLLGHIVDKKPEIVRAYLPADANTLLAVFDKCLHTKHKINLLVTSKHPRQQWLTMDQAVKHVEQGISIWDWASNDKGQEPDVVIASCGDTPTLEALAAVTILHEHLPELKVRFVNVVDMMKLLPENEHPHGLSDKDYNALFTTDKPVIFAFHGFAHLINQLTYHRENRNLHVHGYMEEGTITTPFDMRVQNKLDRFNLVKDVVENLPQLGNRGAHLVQLMNDKLVEHNQYIREVGEDLPEITNWQWHV
# Columns and labels:
# [1] = molecular target: T1, Bifidobacterium pseudolongum subsp. globosum phosphoketolase, Uniprot Q6R2Q6, SEQ ID NO: 1 (Bifidobacterium pseudolongum, UniProt Q6R2Q6); assay: Kinetics of acetyl phosphate formation from D-fructose (hydroxamate-based colorimetric assay); format: biochemical; settings: D-fructose 0-500 mM, 50 mM sodium phosphate, pH 7.5, 37° C., 3 mg/ml enzyme
# T1 sequence (Q6R2Q6 1-825): B2 chain
# Description: (§1) The sequences of phosphoketolases inferred from the genomes of prokaryotic organisms were generated by oligonucleotide concatenation to fit the codon usage of E. coli (genes were commercially synthesized by GeneArt®). A stretch of 6 histidine codons was inserted after the methionine initiation codon to provide an affinity tag for purification. The genes thus synthesized were cloned in a modified pUC18 expression vector (New England Biolabs) containing a modified Multiple Cloning Sites (MCS). The genes of interest were cloned at PacI and NotI restriction sites. Competent MG1655 E. coli cells were transformed with these vectors using standard heat shock procedure. The transformed cells were grown in LB-ampicillin medium for 24 h at 30° C., 160 rpm shaking.
# (§2) The pellets from 200 ml of cultured cells were thawed on ice and resuspended in 3 ml of 50 mM Tris-HCl pH 7.5 containing 300 mM NaCl, 5 mM MgCl2, 1 mM DTT and 10 mM Imidazole. 10 μl of lysonase (Merck) was added. […] Protein concentrations were quantified by direct UV 280 nm measurement on the NanoDrop 1000 spectrophotometer (Thermo Scientific). […]
# (§3) The composition of enzymatic reactions was identical to that described above. Kinetic parameters were determined using a range of D-fructose concentrations (0-500 mM) and a constant concentration of sodium phosphate (50 mM). […]
# [2] = molecular target: Lactococcus lactis subsp. lactis (strain KF147) phosphoketolase, Uniprot A9QST6, SEQ ID NO: 3 (Lactococcus lactis, UniProt Q9CFH4); assay: as above; format: biochemical; settings: D-fructose 0-500 mM, 50 mM sodium phosphate, pH 7.5, 37° C., 3 mg/ml enzyme
# Description: as §1, §2, §3
# [3] = substrate: O=CCO; assay: Kinetics of acetyl phosphate formation from glycolaldehyde (hydroxamate-based colorimetric assay); format: biochemical, Lactococcus lactis subsp. lactis (strain KF147); settings: other: glycolaldehyde 0-100 mM, 50 mM sodium phosphate, pH 7.5, 37° C., 3 mg/ml enzyme
# Description: as §1, §2
# (§4) 0.1 ml of hydroxylamine hydrochloride (2 M, pH 6.5) was added to 0.1 ml of reaction mixture. […] The samples were further clarified by centrifugation and the absorbance of ferric acetyl-hydroxamate complex was measured at 505 nm. […]
# [4] = substrate: O=CCO; assay: as above; format: biochemical, Bifidobacterium pseudolongum subsp. globosum; settings: other: glycolaldehyde 0-100 mM, 50 mM sodium phosphate, pH 7.5, 37° C., 3 mg/ml enzyme
# Description: as §1, §2, §4
# [5] = substrate: O=CCO; assay: as above; format: biochemical, Clostridium acetobutylicum (strain ATCC 824); settings: other: glycolaldehyde 0-100 mM, 50 mM sodium phosphate, pH 7.5, 37° C., 3 mg/ml enzyme
# Description: as §1, §2, §4
molecule,measurement,setting,value
OCC1(O)OC[C@@H](O)[C@@H](O)[C@@H]1O (stereo partly drawn) [D-fructose],kcat,[1],0.10 ± 0.02 s⁻¹
same,kcat,[2],0.11 ± 0.04 s⁻¹
B1,Km,[3],≈25 mM mM
same,kcat,[3],0.05 s⁻¹
B2,Km,[4],≈20 mM mM
same,kcat,[4],0.07 s⁻¹
B3,Km,[5],≈30 mM mM
same,kcat,[5],0.08 s⁻¹
